Measured values as given in article PMC10360156.
Positions count from the first letter of the chain named. Numbers in names are those of the source.

How the values were obtained:
[1] = target: four maltose binding proteins arranged in tandem (4MBP)
[2] = target: four maltose binding proteins arranged in tandem (4MBP); remark: listed apart in the source
[3] = target: four maltose binding proteins arranged in tandem (4MBP); remark: listed apart in the source

B1: human small heat shock protein HSPB8 (wild type) (natural protein)
chain: MADGQMPFSCHYPSRLRRDPFRDSPLSSRLLDDGFGMDPFPDDLTASWPDWALPRLSSAWPGTLRSGMVPRGPTATARFGVPAEGRTPPPFPGEPWKVCVNVHSFKPEELMVKTKDGYVEVSGKHEEKQQEGGIVSKNFTKKIQLPAEVDPVTVFASLSPEGLLIIEAPQVPPYSTFGESSFNNELPQDSQEVTCT
- no. of weak aggregates of 4MBP per trace with 5 μM HSPB8 (No HSPB8: 1.16) (aggregates per trace) [1]: 0.64
- percentage of residues of 4MBP forming weak aggregates after unfolding and 5 s relaxation at 0 pN, with 5 μM HSPB8 (40% in the absence of chaperone) [2]: 19%
- percentage of residues of 4MBP in tight aggregates (not unfolded at 63 pN) after unfolding and relaxation, with 5 μM HSPB8 [2]: < 2%

B2: HSPB8-K141E, pathogenic mutant of human HSPB8 (natural protein)
chain: B1 chain with K141E
- no. of weak aggregates of 4MBP per trace with 5 μM HSPB8-K141E (No HSPB8: 1.16) (aggregates per trace) [1]: 0.85
- percentage of residues of 4MBP forming weak aggregates after unfolding and relaxation, with 5 μM HSPB8-K141E (19% for wild-type HSPB8; 40% in the absence of chaperone) [3]: 31%
